According to US12269859B2, “Synthetic immune receptors and methods of use thereof” (Angeles Therapeutics, Inc., priority 2016, dated 2025):

Tested on: target antigen-expressing cell line
Test: Jurkat NFAT-GFP assay, coculture with target cell lines expressing the respective target antigen (summary Table 10A)
Assay type: cell-based, human
Parameters: key: The signs +/−, +, 2+ etc. after the name of the cell lines indicate the relative degree of positivity on the Jurkat-NFAT-GFP assay as measured by the % GFP positive cells; +: relative degree of positivity on the Jurkat-NFAT-GFP assay as measured by the % GFP positive cells; 2+: relative degree of positivity on the Jurkat-NFAT-GFP assay as measured by the % GFP positive cells
Summary of the method: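 Jurkat cells carrying an NFAT-site IL-2 promoter driving GFP were lentivirally transduced with SIRs, puromycin-selected, then cocultured with antigen-expressing target cells at E:T about 1:2 for about 4–18 hours. GFP induction was read by flow cytometry as % GFP-positive cells versus parental Jurkat-NFAT-GFP.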

B1: 090116-L01 (protein)
chain: MALPVTALLLPLALLLHAARPLEGKPIPNPLLGLDSTGSGEDLKNVFPPEVAVFEPSKAEIAHTQKATLVCLATGFYPDHVELSWWVNGKEVHSGVCTDPQPLKEQPALNDSRYCLSSRLRVSATFWQNPRNHFRCQVQFYGLSENDEWTQDRAKPVTQIVSAEAWGRADCGITSASYHQGVLSATILYEILLGKATLYAVLVSALVLMAMVKRKDSRGRAKRSGSGATNFSLLKQAGDVEENPGPTSMALPVTALLLPLALLLHAARPDIVMTQSQKSMSTSVGDRVSITCKASQDVITGVAWYQQKPGQSPKLLIYSASYRYTGVPDRFTGSGSGTDFTFTISNVQAEDLAVYYCQQHYSTPLTFGAGTKLELKGGGGSGGGGSGGGGSQVQLQQPGAELVRPGASVKLSCKASGYSFTTYWMNWVKQRPGQGLEWIGMIHPSDSETRLNQKFKDKATLTVDKSSSTAYMQLSSPTSEDSAVYYCARSTMIATRAMDYWGQGTSVTVSSTREQKLISEEDGSGIQNPDPAVYQLRDSKSSDKSVCLFTDFDSQTNVSQSKDSDVYITDKCVLDMRSMDFKSNSAVAWSNKSDFACANAFNNSIIPEDTFFPSSDVPCDVKLVEKSFETDTNLNFQNLSVIGFRILLLKVAGFNLLMTLRLWSSRAKRSGSGVKQTLNFDLLKLAGDVESNPGPSRGHMTEYKPTVRLATRDDVPRAVRTLAAAFADYPATRHTVDPDRHIERVTELQELFLTRVGLDIGKVWVADDGAAVAVWTTPESVEAGAVFAEIGPRMAELSGSRLAAQQQMEGLLAPHRPKEPAWFLATVGVSPDHQGKGLGSAVVLPGVEAAERAGVPAFLETSAPRNLPFYERLGFTVTADVEVPEGPRTWCMTRKPGA
modifications: Synthetic Immune Receptor (SIR)
NFAT-GFP ASSAY Positive Cell lines (coculture with L363 cells): (+)
NFAT-GFP ASSAY Positive Cell lines (coculture with U266 cells): U266 (+/−), L363

B2: 060616-K04 (protein)
chain: MALPVTALLLPLALLLHAARPDIQMTQSPSSLSASVGDRVTITCKASQDVGIAVAWYQQKPGKVPKLLIYWASTRHTGVPDRFSGSGSGTDFTLTISSLQPEDVATYYCQQYSSYPYTFGQGTKVEIKLEGKPIPNPLLGLDSTGSGEDLKNVFPPEVAVFEPSKAEIAHTQKATLVCLATGFYPDHVELSWWVNGKEVHSGVCTDPQPLKEQPALNDSRYCLSSRLRVSATFWQNPRNHFRCQVQFYGLSENDEWTQDRAKPVTQIVSAEAWGRADCGITSASYHQGVLSATILYEILLGKATLYAVLVSALVLMAMVKRKDSRGRAKRSGSGATNFSLLKQAGDVEENPGPTSMDWIWRILFLVGAATGAHSFEEVQLVESGGGLVQPGGSLRLSCAASGFDFSRYWMSWVRQAPGKGLEWIGEINPDSSTINYAPSLKDKFIISRDNAKNSLYLQMNSLRAEDTAVYYCARPDGNYWYFDVWGQGTLVTVSSTREQKLISEEDGSGIQNPDPAVYQLRDSKSSDKSVCLFTDFDSQTNVSQSKDSDVYITDKCVLDMRSMDFKSNSAVAWSNKSDFACANAFNNSIIPEDTFFPSSDVPCDVKLVEKSFETDTNLNFQNLSVIGFRILLLKVAGFNLLMTLRLWSSRAKRSGSGVKQTLNFDLLKLAGDVESNPGPSRGHMTEYKPTVRLATRDDVPRAVRTLAAAFADYPATRHTVDPDRHIERVTELQELFLTRVGLDIGKVWVADDGAAVAVWTTPESVEAGAVFAEIGPRMAELSGSRLAAQQQMEGLLAPHRPKEPAWFLATVGVSPDHQGKGLGSAVVLPGVEAAERAGVPAFLETSAPRNLPFYERLGFTVTADVEVPEGPRTWCMTRKPGA
modifications: Synthetic Immune Receptor (SIR)
NFAT-GFP ASSAY Positive Cell lines (coculture with L363 cells): L363 (2+)

B3: 041816-C01 (protein)
chain: MALPVTALLLPLALLLHAARPDTIVLTQSPASLAVSLGQRATISCRASESVDSYGNSFMHWYQQKPGQPPKLLIYLASNLESGVPARFSGSGSRTDFTLTIDPVEADDAATYYCQQNNYDPWTFGGGTKLEIKLEGKPIPNPLLGLDSTGSGEDLKNVFPPEVAVFEPSKAEIAHTQKATLVCLATGFYPDHVELSWWVNGKEVHSGVCTDPQPLKEQPALNDSRYCLSSRLRVSATFWQNPRNHFRCQVQFYGLSENDEWTQDRAKPVTQIVSAEAWGRADCGITSASYHQGVLSATILYEILLGKATLYAVLVSALVLMAMVKRKDSRGRAKRSGSGATNFSLLKQAGDVEENPGPTSMDWIWRILFLVGAATGAHSFEEVQLQQSGPELVKPGASVKMSCKASGYTFTSYVMHWVKQKPGQGLEWIGYINPYNDGTKYNEKFKGKATLTSDTSSSTAYMELNSLTSEDSAVYFCARPIYFDNDYFDYWGQGTTLKVSSTREQKLISEEDGSGTPFPSLAPPIMLLVDGKQQMVVVCLVLDVAPPGLDSPIWFSAGNGSALDAFTYGPSPATDGTWTNLAHLSLPSEELASWEPLVCHTGPGAEGHSRSTQPMHLSGEASTARTCPQEPLRGTPGGALWLGVLRLLLFKLLLFDLLLTCSCLCDPAGPLPSPATTTRLRALGSHRLHPATETGGREATSSPRPQPRDRRWGDTPPGRKPGSPVRAKRSGSGVKQTLNFDLLKLAGDVESNPGPSRGHMTEYKPTVRLATRDDVPRAVRTLAAAFADYPATRHTVDPDRHIERVTELQELFLTRVGLDIGKVWVADDGAAVAVWTTPESVEAGAVFAEIGPRMAELSGSRLAAQQQMEGLLAPHRPKEPAWFLATVGVSPDHQGKGLGSAVVLPGVEAAERAGVPAFLETSAPRNLPFYERLGFTVTADVEVPEGPRTWCMTRKPGA
modifications: Polynucleotide encoding a Synthetic Immune Receptor (SIR)
NFAT-GFP ASSAY Positive Cell lines (coculture with L363 cells): (+/−), L363 (+/−)
NFAT-GFP ASSAY Positive Cell lines (coculture with RAJI cells): RAJI (+/−), U266
NFAT-GFP ASSAY Positive Cell lines (coculture with U266 cells): (+/−), L363 (+/−)

B4: 091216-L03 (protein)
chain: MALPVTALLLPLALLLHAARPLEGKPIPNPLLGLDSTGSGEDLKNVFPPEVAVFEPSKAEIAHTQKATLVCLATGFYPDHVELSWWVNGKEVHSGVCTDPQPLKEQPALNDSRYCLSSRLRVSATFWQNPRNHFRCQVQFYGLSENDEWTQDRAKPVTQIVSAEAWGRADCGITSASYHQGVLSATILYEILLGKATLYAVLVSALVLMAMVKRKDSRGRAKRSGSGATNFSLLKQAGDVEENPGPTSTMALPVTALLLPLALLLHAARPDIQMTQSPSSLSASVGDRVTITCKASQDVGIAVAWYQQKPGKVPKLLIYWASTRHTGVPDRFSGSGSGTDFTLTISSLQPEDVATYYCQQYSSYPYTFGQGTKVEIKGGGGSGGGGSGGGGSEVQLVESGGGLVQPGGSLRLSCAASGFDFSRYWMSWVRQAPGKGLEWIGEINPDSSTINYAPSLKDKFIISRDNAKNSLYLQMNSLRAEDTAVYYCARPDGNYWYFDVWGQGTLVTVSSTREQKLISEEDGSGIQNPDPAVYQLRDSKSSDKSVCLFTDFDSQTNVSQSKDSDVYITDKCVLDMRSMDFKSNSAVAWSNKSDFACANAFNNSIIPEDTFFPSSDVPCDVKLVEKSFETDTNLNFQNLSVIGFRILLLKVAGFNLLMTLRLWSSRAKRSGSGVKQTLNFDLLKLAGDVESNPGPSRGHMTEYKPTVRLATRDDVPRAVRTLAAAFADYPATRHTVDPDRHIERVTELQELFLTRVGLDIGKVWVADDGAAVAVWTTPESVEAGAVFAEIGPRMAELSGSRLAAQQQMEGLLAPHRPKEPAWFLATVGVSPDHQGKGLGSAVVLPGVEAAERAGVPAFLETSAPRNLPFYERLGFTVTADVEVPEGPRTWCMTRKPGA
modifications: Synthetic Immune Receptor (SIR)
NFAT-GFP ASSAY Positive Cell lines (coculture with L363 cells): U266 (+), L363 (+)
NFAT-GFP ASSAY Positive Cell lines (coculture with U266 cells): U266 (+), L363 (+)

B5: 041416-P02 (protein)
chain: MALPVTALLLPLALLLHAARPDIVMTQSQKSMSTSVGDRVSITCKASQDVITGVAWYQQKPGQSPKLLIYSASYRYTGVPDRFTGSGSGTDFTFTISNVQAEDLAVYYCQQHYSTPLTFGAGTKLELKLEGKPIPNPLLGLDSTGSGEDLKNVFPPEVAVFEPSKAEIAHTQKATLVCLATGFYPDHVELSWWVNGKEVHSGVCTDPQPLKEQPALNDSRYCLSSRLRVSATFWQNPRNHFRCQVQFYGLSENDEWTQDRAKPVTQIVSAEAWGRADCGITSASYHQGVLSATILYEILLGKATLYAVLVSALVLMAMVKRKDSRGRAKRSGSGATNFSLLKQAGDVEENPGPTSMDWIWRILFLVGAATGAHSFEQVQLQQPGAELVRPGASVKLSCKASGYSFTTYWMNWVKQRPGQGLEWIGMIHPSDSETRLNQKFKDKATLTVDKSSSTAYMQLSSPTSEDSAVYYCARSTMIATRAMDYWGQGTSVTVSSTREQKLISEEDGSGTPFPSLAPPIMLLVDGKQQMVVVCLVLDVAPPGLDSPIWFSAGNGSALDAFTYGPSPATDGTWTNLAHLSLPSEELASWEPLVCHTGPGAEGHSRSTQPMHLSGEASTARTCPQEPLRGTPGGALWLGVLRLLLFKLLLFDLLLTCSCLCDPAGPLPSPATTTRLRALGSHRLHPATETGGREATSSPRPQPRDRRWGDTPPGRKPGSPVRAKRSGSGVKQTLNFDLLKLAGDVESNPGPSRGHMTEYKPTVRLATRDDVPRAVRTLAAAFADYPATRHTVDPDRHIERVTELQELFLTRVGLDIGKVWVADDGAAVAVWTTPESVEAGAVFAEIGPRMAELSGSRLAAQQQMEGLLAPHRPKEPAWFLATVGVSPDHQGKGLGSAVVLPGVEAAERAGVPAFLETSAPRNLPFYERLGFTVTADVEVPEGPRTWCMTRKPGA
modifications: Polynucleotide encoding a Synthetic Immune Receptor (SIR)
NFAT-GFP ASSAY Positive Cell lines (coculture with L363 cells): (+/−)
NFAT-GFP ASSAY Positive Cell lines (coculture with U266 cells): U266 (+/−), L363

B6: 092216-G01 (protein)
chain: MALPVTALLLPLALLLHAARPLEGKPIPNPLLGLDSTGSGEDLKNVFPPEVAVFEPSKAEIAHTQKATLVCLATGFYPDHVELSWWVNGKEVHSGVCTDPQPLKEQPALNDSRYCLSSRLRVSATFWQNPRNHFRCQVQFYGLSENDEWTQDRAKPVTQIVSAEAWGRADCGITSASYHQGVLSATILYEILLGKATLYAVLVSALVLMAMVKRKDSRGRAKRSGSGATNFSLLKQAGDVEENPGPTSTMALPVTALLLPLALLLHAARPDIQMTQSPSSLSASLGERVSLTCRATQELSGYLSWLQQKPDGTIKRLIYAASTLDSGVPKRFSGNRSGSDYSLTISSLESEDFADYYCLQYAIYPYTFGGGTKLEIKGGGGSGGGGSGGGGSEVQLQQSGPELVKPGASVKMSCKASGYTFTSYFIHWVKQKPGQGLEWIGFINPYNDGSKYNEKFKGKATLTSDKSSSTAYMELSSLTSEDSAVYYCTRDDGYYGYAMDYWGQGTSVTVSSTREQKLISEEDGSGIQNPDPAVYQLRDSKSSDKSVCLFTDFDSQTNVSQSKDSDVYITDKCVLDMRSMDFKSNSAVAWSNKSDFACANAFNNSIIPEDTFFPSSDVPCDVKLVEKSFETDTNLNFQNLSVIGFRILLLKVAGFNLLMTLRLWSSRAKRSGSGVKQTLNFDLLKLAGDVESNPGPSRGHMTEYKPTVRLATRDDVPRAVRTLAAAFADYPATRHTVDPDRHIERVTELQELFLTRVGLDIGKVWVADDGAAVAVWTTPESVEAGAVFAEIGPRMAELSGSRLAAQQQMEGLLAPHRPKEPAWFLATVGVSPDHQGKGLGSAVVLPGVEAAERAGVPAFLETSAPRNLPFYERLGFTVTADVEVPEGPRTWCMTRKPGA
modifications: Synthetic Immune Receptor (SIR)
NFAT-GFP ASSAY Positive Cell lines (coculture with HL60 cells): HL60 (+/−)
